# According to PMC3814354, “Interaction of bacterial fatty-acid-displaced regulators with DNA is interrupted by tyrosine phosphorylation in the helix-turn-helix domain”:
# Substitutions are numbered along the chain they refer to.
# T1: FatR wild type (Bacillus subtilis, UniProt O08335 1-194)
# T1 sequence: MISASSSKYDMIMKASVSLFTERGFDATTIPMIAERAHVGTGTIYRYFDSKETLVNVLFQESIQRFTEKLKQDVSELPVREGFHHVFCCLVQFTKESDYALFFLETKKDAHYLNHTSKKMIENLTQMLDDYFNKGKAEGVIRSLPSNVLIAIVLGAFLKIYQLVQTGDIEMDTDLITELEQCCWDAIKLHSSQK
# T2: FatR Y45E (Bacillus subtilis, UniProt O08335 1-194, Y45E)
# T2 sequence: T1 sequence with Y45E
# T3: FatR Y45F (Bacillus subtilis, UniProt O08335 1-194, Y45F)
# T3 sequence: T1 sequence with Y45F
# B1: fatR operator (BsOP1/BsOP2) (dsDNA)
# DNA 1: TACGGAATGAATATTCATTCCTTT
# DNA 2: AAAGGAATGAATATTCATTCCGTA
# Assays:
# Conditions in all cases: protein: recombinant; tags: N-terminal 6xHis (pQE-30); chain copies: 2; label: none (ethidium bromide stain); blunt
# FatR wild type = molecular target: T1, FatR wild type; assay: EMSA; 120-1920 pmol protein, 30 pmol DNA (protein:DNA 4:1 to 64:1); EMSA: 100 mM Tris-HCl pH 7.5, 15 min at 37 C, 8% native PAGE in Tris-glycine (2.5 mM Tris, 192 mM glycine), ethidium bromide stain
# FatR Y45E = molecular target: T2, FatR Y45E; assay: EMSA; 960 and 1920 pmol protein, 30 pmol DNA (up to 64:1); EMSA: 100 mM Tris-HCl pH 7.5, 15 min at 37 C, 8% native PAGE in Tris-glycine (2.5 mM Tris, 192 mM glycine), ethidium bromide stain
# FatR Y45F = molecular target: T3, FatR Y45F; assay: as above
binder,measurement,setting,value
B1,binding result,FatR wild type,binds
same,binding result,FatR Y45E,no binding
same,binding result,FatR Y45F,no binding
